Measurements from doi:10.1101/815886.
Several values for one entry are separate records, joined by “and”; a condition that tells them apart may be missing. Equal entries are not always repeated. Where two headings read alike, the source gives them in different places.

Legend:
Settings in all cases: remark: other sources report otherwise
[1] = target: T1, human CTC1-STN1-TEN1 (CST) heterotrimeric complex (human), Q2NKJ3
T1 chain 1: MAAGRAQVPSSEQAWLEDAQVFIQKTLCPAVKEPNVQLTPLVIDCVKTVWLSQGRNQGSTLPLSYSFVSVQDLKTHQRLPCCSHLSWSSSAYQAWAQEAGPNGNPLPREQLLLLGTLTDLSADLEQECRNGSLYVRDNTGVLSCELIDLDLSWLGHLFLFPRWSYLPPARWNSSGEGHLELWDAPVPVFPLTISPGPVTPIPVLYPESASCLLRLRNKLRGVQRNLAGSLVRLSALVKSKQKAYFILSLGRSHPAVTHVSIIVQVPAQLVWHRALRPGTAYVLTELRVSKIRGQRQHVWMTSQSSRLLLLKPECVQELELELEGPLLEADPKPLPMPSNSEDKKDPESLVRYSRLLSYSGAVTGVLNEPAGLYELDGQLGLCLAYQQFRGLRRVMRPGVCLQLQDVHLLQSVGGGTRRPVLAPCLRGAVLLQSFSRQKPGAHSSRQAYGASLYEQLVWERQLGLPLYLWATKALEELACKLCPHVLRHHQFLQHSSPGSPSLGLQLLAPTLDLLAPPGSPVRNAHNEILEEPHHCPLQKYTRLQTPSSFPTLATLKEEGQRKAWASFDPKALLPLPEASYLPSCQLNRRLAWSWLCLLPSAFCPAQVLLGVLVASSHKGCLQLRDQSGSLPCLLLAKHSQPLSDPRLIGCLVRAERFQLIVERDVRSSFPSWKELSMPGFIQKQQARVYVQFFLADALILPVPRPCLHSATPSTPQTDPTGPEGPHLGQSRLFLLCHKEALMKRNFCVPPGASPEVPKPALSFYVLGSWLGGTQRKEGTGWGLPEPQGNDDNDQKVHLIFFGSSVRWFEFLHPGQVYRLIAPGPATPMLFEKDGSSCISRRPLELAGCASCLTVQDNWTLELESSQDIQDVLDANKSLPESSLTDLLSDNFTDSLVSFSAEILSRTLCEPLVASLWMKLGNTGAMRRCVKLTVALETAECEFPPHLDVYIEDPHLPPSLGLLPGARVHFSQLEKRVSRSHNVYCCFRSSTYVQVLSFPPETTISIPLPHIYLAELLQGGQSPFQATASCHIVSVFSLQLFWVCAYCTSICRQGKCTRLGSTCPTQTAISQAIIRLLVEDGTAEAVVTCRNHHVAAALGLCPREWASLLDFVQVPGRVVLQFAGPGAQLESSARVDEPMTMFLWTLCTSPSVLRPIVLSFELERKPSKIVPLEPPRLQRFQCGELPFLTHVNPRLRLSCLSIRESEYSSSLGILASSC
T1 chain 2: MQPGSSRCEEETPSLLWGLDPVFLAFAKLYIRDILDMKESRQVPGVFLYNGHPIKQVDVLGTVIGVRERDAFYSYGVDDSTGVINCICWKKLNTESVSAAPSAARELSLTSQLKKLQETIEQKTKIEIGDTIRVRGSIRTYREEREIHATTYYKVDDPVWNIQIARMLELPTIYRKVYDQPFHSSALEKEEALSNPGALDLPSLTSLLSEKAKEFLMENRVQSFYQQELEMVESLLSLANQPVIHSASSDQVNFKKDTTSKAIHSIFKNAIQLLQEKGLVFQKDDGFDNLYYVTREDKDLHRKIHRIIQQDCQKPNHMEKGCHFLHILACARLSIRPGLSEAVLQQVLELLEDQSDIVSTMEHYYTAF
T1 chain 3: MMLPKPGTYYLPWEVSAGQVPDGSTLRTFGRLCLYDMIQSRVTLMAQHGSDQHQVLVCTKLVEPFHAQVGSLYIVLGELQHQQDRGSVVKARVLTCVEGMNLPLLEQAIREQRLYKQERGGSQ

[2] = target: T1, human CTC1-STN1-TEN1 (CST) …; experiment: cryo-EM structure
[3] = target: T1, human CTC1-STN1-TEN1 (CST) …; experiment: negative-stain EM single-particle analysis
[4] = target: T1, human CTC1-STN1-TEN1 (CST) …; experiment: negative-stain EM single-particle analysis

stoichiometry N [1]: 10 | stoichiometry N [2]: 10 | stoichiometry N [3]: 4 and 2 | stoichiometry N [4]: 10
B1: human CTC1-STN1-TEN1 (CST) heterotrimeric complex, Q2NKJ3;Q9H668;Q86WV5 (complex)
chain 1: T1 chain 1
chain 2: T1 chain 2
chain 3: T1 chain 3
